The values that follow come from patent US20230235027A1 (US Dept. of Health and Human Services, published 2023).

Experiment [1] has as its target T1, Biotinylated SARS-CoV-2 S protein RBD with a C-terminal AviTag (SARS-CoV-2, UniProt P0DTC2 319-541).
The target in experiment [2] is T1, Biotinylated SARS-CoV-2 S protein RBD …. Put plainly: biolayer interferometry (FIG. 7C).
Experiment [3] addresses T2, SARS-CoV-2 spike protein receptor binding domain (RBD), recombinant (SARS-CoV-2, UniProt P0DTC2 319-541).
Experiment [4] deals with T1, Biotinylated SARS-CoV-2 S protein RBD …. The source holds these as a separate data set.
The target of experiment [5] is T2, SARS-CoV-2 spike protein receptor …. The source holds these as a separate data set.
Experiment [6] has the same target. Description: competition ELISA, RBD coated, competitor biotinylated ACE2.
Experiment [7] shares this target. Put plainly: direct binding to RBD wild type (FIG. 7B); format not described further.
Experiment [8] shares this target. Description: kinetic measurement, method not stated; table row prototype RBD.
Experiment [9] has as its target T3, SARS-CoV-1 spike protein RBD (SARS-CoV-1, UniProt P59594 306-527).
T3 construct: domain: RBD
Description: ELISA: coated SARS-CoV-1 RBD, NIH-CoVnb-112 titrated, absorbance 450 nm.

Experiment [10] has as its target T2, SARS-CoV-2 spike protein receptor …. Put plainly: ELISA: coated SARS-CoV-2 RBD, NIH-CoVnb-112 titrated, absorbance 450 nm.

Where a chain is given by its changes, count along the chain named. Where “and” joins values, the source holds several entries; their conditions need not be identical. Equal entries are not always repeated. Where two headings read alike, the source gives them in different places.

B1: NIH-CoVnb-103 (VHH, not shown: large carriers)
VHH: DVQLQESGGGLVQPGGSLRLSCAASGLTLDYYTIGWFRQAPGKEREGVSCISSSDDSTYYADSVKGRFTISRDNAKNTVYLQMNSLKPEDTAVYYCATAPGTYYKGSYYPMCHYYGMDYWGKGTQVTVSS
Regarding B1, in experiment [1], the Kd amounted to 9.43 nM, the koff was 0.00286 s⁻¹ and the kon came to 303000 M⁻¹ s⁻¹.

B2: VHH72 (VHH)
VHH: QVQLQESGGGLVQAGGSLRLSCAASGRTFSEYAMGWFRQAPGKEREFVATISWSGGSTYYTDSVKGRFTISRDNAKNTVYLQMNSLKPDDTAVYYCAAAGLGTVVSEWDYDYDYWGQGTQVTVSS
For the molecule B2, the binding result in experiment [2] is “binds”.

B3: NIH-CoVnb-108 (VHH, not shown: large carriers)
VHH: DVQLQESGGGLVQPGGSLRLSCAASGFTLDYYAIGWFRQAPGKEREGVSCISNSGGSTYYADSVKGRFTTSRDNAKNTVYLQMNSLKPEDTAVYYCAAVPSTYYSGSYYYTCHPGGMDYWGKGTQVTVSS
Take B3: in experiment [1], the Kd stood at 26.6 nM, the koff worked out at 0.00109 s⁻¹ and the kon stood at 40900 M⁻¹ s⁻¹.

B4: NIH-CoVnb-113 (VHH)
VHH: B3 VHH with F27L, N53S, G55D, S107T, Q125L
In [1], B4 yielded a Kd of 8.19 nM, a dissociation rate constant (koff) of 0.000804 s⁻¹ and an association rate constant (kon) of 98200 M⁻¹ s⁻¹.

B5: NIH-CoVnb-112 (VHH)
VHH: B3 VHH with F27L, N53S, G55D, S107T
In the case of B5, the values for the Kd in [3] and in [4] were 2.1 nM and 4.9 nM, respectively. Moreover, the koff in experiment [4] amounted to 0.000654 s⁻¹; in experiment [5], 0.000295 s⁻¹; in [8], 0.000236 s⁻¹. The results for the kon in experiment [4], in experiment [5] and in [8] were 130000 M⁻¹ s⁻¹, 141000 M⁻¹ s⁻¹ and 223000 M⁻¹ s⁻¹, respectively. Also, the EC50 was 0.02 µg/mL and 1.11 nM in [6]; about 0.01 mg/L in experiment [7]. Besides, in [9], the binding result was “no binding (tested: about 5 µg/mL)”. Further, the “EC50 (read off the curve)” value in experiment [10] is about 0.01 mg/L.

B6: NIH-CoVnb-109 (VHH, not shown: large carriers)
VHH: B3 VHH with P14S, S52T, G55D, A98S, V99F
Take B6: in experiment [1], binding was characterised by a dissociation constant (Kd) of 58.5 nM, the koff turned out to be 0.00188 s⁻¹ and the kon came out at 32100 M⁻¹ s⁻¹.
